We go through 83 variants from the RNAGym collection of RNA variant scans (doi:10.1073/pnas.2313332121).

This sample holds only a part of the variants without activity.

The chains are these.
B1: TPR 5TU (parent)
chain: GGAUCUUCUCGAUCUAACAAAAAAGACAAAUCUGCCACAAAGCUUGAGAGCAUCUUCGGAUGCAGAGGCGGCAGCCUUCGGUGGCGCGAUAGCGCCAACGUUCUCAACUAUGACACGCAAAACGCGUGCUCCGUUGAAUGGAGUUUAUCAUG

This data set covers variants of B1. In words: polymerase ribozyme fitness, log enrichment relative to wild type (log ratio); higher = more active; in vitro selection for triplet polymerase activity. The method, boiled down:
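After PCR construction and transcription, each subunit's mutant library from a heterodimeric triplet polymerase ribozyme was annealed with a biotinylated primer, the partner subunit and triplets. Incubation was frozen, at −7 °C, and extended constructs were gel-excised, bound to streptavidin beads and amplified by RT-PCR, in one selection round done in triplicate. Fitness is the logarithm of a genotype's enrichment divided by that of the wild type, from inverse-variance-weighted replicate averages of Illumina-sequenced inputs and outputs. The base of the logarithm is 2, and genotypes needed ≥10 input reads and ≥1 read per output.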
For G92U A138C, the “polymerase ribozyme fitness (log ratio)” value is -3.95.
On to G92U U146A, for which the “polymerase ribozyme fitness (log ratio)” value was -0.393.
As for G92A U127A A150U, the “polymerase ribozyme fitness (log ratio)” value is -4.1.
Take G92U C95U A137U: the “polymerase ribozyme fitness (log ratio)” value is -4.11.
Regarding G92U U101A A119U G143U, the “polymerase ribozyme fitness (log ratio)” value was -3.62.
For G88A C149U the value was -4.04; for C93A A150G, -3.51.
U90A G94U C95U C116G C118G C123G: the “polymerase ribozyme fitness (log ratio)” value is ≤ -4.2.
For A89U A97G U134A G141C the value was -3.84.
On to A91G G140U, for which the “polymerase ribozyme fitness (log ratio)” value is -4.19.
G88A C118A A120G: the “polymerase ribozyme fitness (log ratio)” value is ≤ -4.2.
As for G88C A137U G143A, the “polymerase ribozyme fitness (log ratio)” value is ≤ -4.2.
As to G92U U104G, the “polymerase ribozyme fitness (log ratio)” value is -0.858.
In the case of A91G C93U, the “polymerase ribozyme fitness (log ratio)” value is -3.88.
Consider U90A C125G A147C U148C, for which the “polymerase ribozyme fitness (log ratio)” value was -3.99.
As to A91G U130G, the “polymerase ribozyme fitness (log ratio)” value was ≤ -4.2.
As for A89U C93U C125U U127A A142U C149U, the “polymerase ribozyme fitness (log ratio)” value was ≤ -4.2.
Consider G92A A106C U111G G136A, for which the “polymerase ribozyme fitness (log ratio)” value is ≤ -4.2.
For C93A C96G A97C U148A the value was ≤ -4.2; for A89U G92C G94U G141A, -3.94.
As for G88A C96A C125U G126U, the “polymerase ribozyme fitness (log ratio)” value was ≤ -4.2.
In the case of G88C U101C A113C U139G, the “polymerase ribozyme fitness (log ratio)” value was ≤ -4.2.
For G88C G100C A106G U146C, the “polymerase ribozyme fitness (log ratio)” value is ≤ -4.2.
Turning to A89U U102G A122C, the “polymerase ribozyme fitness (log ratio)” value is -3.7.
On to G92C C103A, for which the “polymerase ribozyme fitness (log ratio)” value is -3.4.
For the variant G88A U127G C129U, the “polymerase ribozyme fitness (log ratio)” value is ≤ -4.2.
For G88U A91G the value was ≤ -4.2; for C93A A110U, -3.99.
On to A91G G143C, for which the “polymerase ribozyme fitness (log ratio)” value is -3.43.
Regarding G88C A147C G152U, the “polymerase ribozyme fitness (log ratio)” value is ≤ -4.2.
As to G92A G141A, the “polymerase ribozyme fitness (log ratio)” value was -2.48.
The figure for G92A G141C is -3.71; for A89U C123U it is 0.89.
With U90C U127C, the “polymerase ribozyme fitness (log ratio)” value was ≤ -4.2.
For A91C G112C U146A the value was ≤ -4.2; for G92A C116G C123G, -2.92.
On to G88C G143C, for which the “polymerase ribozyme fitness (log ratio)” value is -3.92.
Regarding G92U A113C, the “polymerase ribozyme fitness (log ratio)” value is -2.78.
Take G92A A115C: the “polymerase ribozyme fitness (log ratio)” value is -3.48.
Turning to G92A U104G A110G, the “polymerase ribozyme fitness (log ratio)” value was -3.8.
As to G92C A142U, the “polymerase ribozyme fitness (log ratio)” value was -2.07.
The figure for G92U C118A is -1.05; for G92C A98G A115U it is -2.44; for G92A U144C A147U it is -3.46.
As to A89C A97U U101G A110G U134G G141A, the “polymerase ribozyme fitness (log ratio)” value was ≤ -4.2.
On to C93A C116U, for which the “polymerase ribozyme fitness (log ratio)” value is -1.88.
Take A91C C96A G126A: the “polymerase ribozyme fitness (log ratio)” value was ≤ -4.2.
The figure for A89C C125A is -1.13; for A91G C118U A121U A122U G124A it is -3.56.
For G92C U104G, the “polymerase ribozyme fitness (log ratio)” value is -1.85.
As for G92C U104C, the “polymerase ribozyme fitness (log ratio)” value was -1.35.
Consider C93A G117U, for which the “polymerase ribozyme fitness (log ratio)” value was -1.92.
On to A89U C103U A106C G117A, for which the “polymerase ribozyme fitness (log ratio)” value is -2.14.
The figure for U90G A97G C114U U139G is ≤ -4.2; for G88A G117U it is -3.84; for A91U A97G it is -3.67.
On to C93A A142U, for which the “polymerase ribozyme fitness (log ratio)” value was -3.16.
Take C93A A142G: the “polymerase ribozyme fitness (log ratio)” value is -2.77.
The figure for C93A A142C is -1.78; for C93A G124A it is -2.59; for U90C G92A C123A G126A A147C it is ≤ -4.2.
As for G92C A115U, the “polymerase ribozyme fitness (log ratio)” value was -1.86.
For C93A U101C G124U, the “polymerase ribozyme fitness (log ratio)” value is -2.74.
For the variant C93A U127A G133U G140U, the “polymerase ribozyme fitness (log ratio)” value was ≤ -4.2.
With A91G U104G A115C, the “polymerase ribozyme fitness (log ratio)” value was -4.06.
As for G92U A115C A119U G140C, the “polymerase ribozyme fitness (log ratio)” value was ≤ -4.2.
For G88C A89C C95U the value was ≤ -4.2; for G88U U130A A147C, ≤ -4.2; for C93A U104G, -2.89.
Consider C93A C118U C125A A142G, for which the “polymerase ribozyme fitness (log ratio)” value is ≤ -4.2.
For A89C U148C the value was -3.51.
Regarding G92A C108U, the “polymerase ribozyme fitness (log ratio)” value is ≤ -4.2.
With G92U G124U G141C, the “polymerase ribozyme fitness (log ratio)” value is -0.283.
On to G92C U134G, for which the “polymerase ribozyme fitness (log ratio)” value is -1.68.
The figure for G92A A113C is -4.16.
Regarding A89U, the “polymerase ribozyme fitness (log ratio)” value was -0.292.
For A89G the value was -0.999.
As for A89C, the “polymerase ribozyme fitness (log ratio)” value is -0.82.
Consider C93A A97U G128A, for which the “polymerase ribozyme fitness (log ratio)” value was ≤ -4.2.
Turning to C93A U101G U139C G141C, the “polymerase ribozyme fitness (log ratio)” value is -3.88.
The figure for G92U C95A A115G A147C is ≤ -4.2.
In the case of G92U A107U, the “polymerase ribozyme fitness (log ratio)” value was -3.2.
Take U90A C95U A121U U127A: the “polymerase ribozyme fitness (log ratio)” value was ≤ -4.2.
